The results in this text go back to US20170158755A1 (PROTHENA BIOSCIENCES, published 2017).

In test [1] the target is T1, LGde2, human LAMA4 G domain with LG2 deleted, displayed on 293 cells (human, UniProt Q16363 830-1821, limits assumed).
T1 construct: pDisplay construct on 293 cells; vector tags and anchor not written here; also called LGde2 (LG13)
T1 sequence: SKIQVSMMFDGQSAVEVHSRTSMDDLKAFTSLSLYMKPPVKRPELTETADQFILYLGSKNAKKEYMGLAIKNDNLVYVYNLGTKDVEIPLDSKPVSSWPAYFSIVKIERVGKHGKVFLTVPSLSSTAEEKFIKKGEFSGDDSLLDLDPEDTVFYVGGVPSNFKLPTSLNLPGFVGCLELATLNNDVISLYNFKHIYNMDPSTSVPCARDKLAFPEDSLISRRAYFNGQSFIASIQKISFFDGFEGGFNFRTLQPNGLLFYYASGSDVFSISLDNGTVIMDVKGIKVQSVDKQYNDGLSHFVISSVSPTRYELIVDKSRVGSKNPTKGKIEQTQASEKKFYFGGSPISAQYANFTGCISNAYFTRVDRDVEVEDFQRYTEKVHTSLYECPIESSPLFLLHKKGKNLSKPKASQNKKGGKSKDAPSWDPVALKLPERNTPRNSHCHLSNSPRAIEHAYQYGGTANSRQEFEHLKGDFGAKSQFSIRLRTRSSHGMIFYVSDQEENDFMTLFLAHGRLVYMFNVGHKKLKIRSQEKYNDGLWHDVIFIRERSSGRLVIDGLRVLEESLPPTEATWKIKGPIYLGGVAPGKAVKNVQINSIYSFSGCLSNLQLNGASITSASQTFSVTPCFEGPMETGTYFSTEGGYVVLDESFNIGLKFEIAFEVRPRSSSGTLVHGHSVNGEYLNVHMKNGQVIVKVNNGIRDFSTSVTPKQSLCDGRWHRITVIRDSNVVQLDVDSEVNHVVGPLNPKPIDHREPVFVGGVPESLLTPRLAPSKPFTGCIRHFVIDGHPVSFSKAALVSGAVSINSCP
Briefly: flow cytometry on 293 cells displaying LAMA4 G-domain variants; % binding. The text has this: (§1) LGde1 has a full-length G domain (i.e., LG1-5) with LG1 deleted, LGde2 has a full-length G domain with LG2 deleted, and LGde3 has a full-length G domain with LG3 deleted. Recombinant MCAM-Fc protein was able to specifically bind 293 cells expressing LAMA4 variants LG1-5, LG1-3, and LGde 1 (LG23), but not 293 cells expressing LAMA 4 variants LG4-5, LGde2 (LG13), or LGde3 (LG12).

Test [2] addresses T2, LGde3, human LAMA4 G domain with LG3 deleted, displayed on 293 cells (human, UniProt Q16363 830-1821, limits assumed).
T2 construct: pDisplay construct on 293 cells; vector tags and anchor not written here; also called LGde3 (LG12); LGde3 (LG23)
T2 sequence: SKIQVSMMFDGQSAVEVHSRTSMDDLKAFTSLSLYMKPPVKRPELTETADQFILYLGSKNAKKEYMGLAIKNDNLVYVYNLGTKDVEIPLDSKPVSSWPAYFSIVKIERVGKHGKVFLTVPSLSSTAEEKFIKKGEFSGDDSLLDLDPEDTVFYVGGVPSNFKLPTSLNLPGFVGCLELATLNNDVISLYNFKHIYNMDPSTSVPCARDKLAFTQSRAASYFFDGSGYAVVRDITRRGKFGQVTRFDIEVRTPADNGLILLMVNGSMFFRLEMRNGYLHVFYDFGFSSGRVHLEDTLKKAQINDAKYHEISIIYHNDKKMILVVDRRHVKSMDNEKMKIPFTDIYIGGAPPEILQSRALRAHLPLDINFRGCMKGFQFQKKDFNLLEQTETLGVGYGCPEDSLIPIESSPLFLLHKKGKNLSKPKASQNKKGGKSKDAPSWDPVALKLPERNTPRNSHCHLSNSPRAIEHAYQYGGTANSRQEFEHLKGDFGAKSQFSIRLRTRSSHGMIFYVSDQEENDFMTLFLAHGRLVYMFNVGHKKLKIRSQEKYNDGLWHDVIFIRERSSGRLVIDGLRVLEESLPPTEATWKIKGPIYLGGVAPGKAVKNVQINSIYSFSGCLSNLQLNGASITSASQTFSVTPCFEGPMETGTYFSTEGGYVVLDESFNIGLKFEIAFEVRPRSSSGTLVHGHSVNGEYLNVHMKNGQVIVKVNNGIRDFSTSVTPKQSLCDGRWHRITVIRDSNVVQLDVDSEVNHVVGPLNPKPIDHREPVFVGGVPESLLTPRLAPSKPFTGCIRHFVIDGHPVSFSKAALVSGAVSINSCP
The description is as above.
Excerpt: as §1

B1: mouse monoclonal antibody 19C12 (antibody, V domains shown)
VH: QVQLQQSGAELVKPGASVKISCKASGYAFSTYWMNWVKQRPGEGLEWIGQIYPGDGDTNYNGKFKGKATLTADKSSSTAYMQLSSLTSEDSAVYFCARSDGYYDYWGQGTTLTVSS
VL: NIVLTQSPASLAVSLGQRATISCRASESVDSYGTSFMHWYQQKPGQPPKLLICLASSLESGVPARFSGSGSRTDFTLTIDPVEADDAATYYCQQNNEDPPTFGAGTKLELKR
notes: Mouse hybridoma antibody; Mouse IgG2b was used as its isotype control; also called m19C12
For the molecule B1, the binding result in test [1] and in test [2] was “no binding” each time.

B2: mouse monoclonal antibody 1C1 (antibody, V domains shown)
VH: QVQLQQSGAELARPGASVKLSCKASGYTFTNYGISWVKQRTGQGLEWIGAIYPRSGNTYYNEKFKGKATLTADKSSSTAYMELRSLTSEDSAVYFCARERDYGSSYALDYWGQGTSVTVSS
VL: DIVMTQSQKFMSTSVGDRVSVTCKASHNVGTNVAWYQQKPGQSPKPLIYSASYRYSGVPDRFTGSGSGTDFTLTISNVQSEDLADYFCQQFNNYPYTFGGGTKLEIKR
notes: version 1 is written here
Turning to B2, the binding result in test [1] and in test [2] was “no binding” in each case.
